One experiment has as its target T1, S1_SS* (disulfide 2-9 (inferred)).
T1 chain: ACLIPSWGCGGG-{Dap(FAM)}
In words: fluorescence polarization.

The target in the next experiment is T2, S1_APBA-3* (linker (positions not given here) via APBA‑3; reading uncertain).
T2 chain: ACLIPSWGCGGG-{Dap(FAM)}
As to the kind of experiment: fluorescence polarization. (In fluorescence polarisation assays a small probe gives low polarisation when free and higher when bound to something large.)

For a further experiment, the target named is T3, S1_SS (disulfide 2-9 (inferred)).
T3 chain: ACLIPSWGCGGG
As to the kind of experiment: fluorescence polarization competition.

Bridge positions count the residues as written; N and C are the ends. Ends that are not written are not given here. APBA‑3 = not defined here

B1: Sortase A (protein)
chain: MKKWTNRLMTIAGVVLILVAAYLFAKPHIDNYLHDKDKDEKIEQYDKNVKEQASKDKKQQAKPQIPKDKSKVAGYIEIPDADIKEPVYPGPATPEQLNRGVSFAEENESLDDQNISIAGHTFIDRPNYQFTNLKAAKKGSMVYFKVGNETRKYKMTSIRDVKPTDVGVLDEQKGKDKQLTLITCDDYNEKTGVWEKRKIFVATEVK
Regarding B1, the Kd (in general, the free concentration of one partner at which half of the binding sites on the other are occupied at equilibrium, for simple one-to-one binding) with S1_SS* amounted to 5.2 µM; in the experiment with S1_APBA-3* it was 64 µM. In addition, in the experiment with S1_SS, the 50% inhibitory concentration (IC50) – broadly, the midpoint of a concentration-inhibition curve – is 26 µM.

These data come from paper PMC9440474 (2022).
